The values that follow come from US7824885B2, “Engineered proteases for affinity purification and processing of fusion proteins” (University of Maryland, College Park, priority 2003, dated 2010).

This test concerns the target S160 (Bacillus amyloliquefaciens, UniProt P00782, DEL180-188/E263S/G190A/G235S/G273S/G276A/I138L/K150N/M157F/N319G/N325S/Q313C/Q378E/S116A/S295P/T361A/Y211A/Y324L). Description: inhibition of S160 by prodomain pR58. It is filed as biochemical.

S160, sequence (P00782 other isoform, or with tags, fused parts or gaps with the stated changes): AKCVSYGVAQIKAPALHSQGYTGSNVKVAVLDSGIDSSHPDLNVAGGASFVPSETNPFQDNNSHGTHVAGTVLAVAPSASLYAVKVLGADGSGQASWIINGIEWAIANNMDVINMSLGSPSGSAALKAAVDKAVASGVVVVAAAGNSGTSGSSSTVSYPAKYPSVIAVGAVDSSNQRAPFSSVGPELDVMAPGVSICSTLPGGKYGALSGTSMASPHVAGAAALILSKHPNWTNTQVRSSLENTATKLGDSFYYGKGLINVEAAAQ

B1: pR58: version of pR8 with its last four amino acids (AHAY) replaced with FRAM (protein)
chain: AGKSNGEKKYIVGFKSGIKSCAKKQDVISEKGGKLQKCFKYVDAASATLNEKAVKELKKDPSVAYVEEDKVFRAM
modifications: pR58 (pR8FRAM) variant of SEQ ID NO 2
notes: version of pR8 with its last four amino acids (AHAY) replaced with FRAM
B1: the Ki was around 0.03 nM.
